The labels stand for the following.
T1: TMPRSS6 expressed in transfected HepG2 cells (UniProt Q8IU80 1-811, limits assumed)
T1 sequence (looked up): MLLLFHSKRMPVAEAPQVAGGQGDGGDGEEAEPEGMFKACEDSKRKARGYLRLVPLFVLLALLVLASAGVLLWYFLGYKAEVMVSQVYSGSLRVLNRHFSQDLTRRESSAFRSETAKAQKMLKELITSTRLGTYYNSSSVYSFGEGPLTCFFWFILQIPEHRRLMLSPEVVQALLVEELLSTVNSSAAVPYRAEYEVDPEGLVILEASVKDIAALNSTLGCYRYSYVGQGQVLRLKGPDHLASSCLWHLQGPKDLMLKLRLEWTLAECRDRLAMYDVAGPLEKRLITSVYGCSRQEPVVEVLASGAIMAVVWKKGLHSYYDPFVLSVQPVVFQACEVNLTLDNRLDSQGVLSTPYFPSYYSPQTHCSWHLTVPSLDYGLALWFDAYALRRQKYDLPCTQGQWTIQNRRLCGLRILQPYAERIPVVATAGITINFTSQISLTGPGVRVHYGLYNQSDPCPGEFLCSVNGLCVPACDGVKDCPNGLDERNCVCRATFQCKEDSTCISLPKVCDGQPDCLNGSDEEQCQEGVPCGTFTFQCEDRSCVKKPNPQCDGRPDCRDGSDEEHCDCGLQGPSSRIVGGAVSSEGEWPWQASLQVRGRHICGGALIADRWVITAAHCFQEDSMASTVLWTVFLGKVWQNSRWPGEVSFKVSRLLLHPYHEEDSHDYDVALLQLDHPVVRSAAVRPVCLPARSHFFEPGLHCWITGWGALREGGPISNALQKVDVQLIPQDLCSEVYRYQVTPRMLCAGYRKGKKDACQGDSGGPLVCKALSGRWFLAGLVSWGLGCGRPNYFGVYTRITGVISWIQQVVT

B1: MWTx-003 anti-TMPRSS6 antibody (antibody, mouse IgG2b, kappa, V domains shown)
VH: EVQLQQSGAELVKPGASVKLSCTASGFNIEDYYIHWVKERTEQGLEWIGRIDPEDGETTYAPQFQGKATIIPDTSSNTAYMQLSSLTSEDAAVYYCARSIYLDPMDYWGQGTSVTVSS
VL: DIVMTQSHKFMSTSVGDRVSITCKASQDVTTAVAWYQQKPGQSPKILIYWATTRHTGVPDRFTGSISGTTYILTISSVQAEDLALYYCQQHYSTPYTFGGGTKLEIKR
B2: humanized anti-TMPRSS6 antibody variant hzMWTx-003Var (antibody, human IgG1, kappa, L234A L235A, V domains shown)
VH: QVQLVQSGAEVKKPGASVKVSCKASGFNIEDYYMHWVRQAPGQRLEWMGRIDPEDAETTYSPKFQGRVTIIPDTSANTAYMELSSLRSEDTAVYYCARSIYLDPMDYWGQGTLVTVSS
VL: DIQMTQSPKSLSASVGDRVTITCRASQDVTTALAWYQQKPGQSPKLLIYWATTRHSGVPSRFSGSGSGTDFTLTISSLQPEDFATYYCQQHYSTPYTFGQGTKLEIKR
B3: humanized anti-TMPRSS6 antibody variant hzMWTx-001Var (antibody, human IgG1, kappa, N297A, V domains shown)
VH: EVQLVQSGAEVKKPGASVKVSCKASGYTFTSYWITWVRQAPGQRLEWIGNIYPGSGSTYYNEKFKSKATITRDTSSRTAYMELSSLRSEDTAVYYCAPYDADYAMDYWGQGTLVTVSS
VL: DIQMTQSPSSLSASVGDRVTITCKASQDISNYLSWFQQKPGKAPKLLIYRANRLVEGVPSRFSGSGSGTDFTLTISSLQPEDFATYFCLQYDEFPLTFGGGTKVEIKR
B4: MWTx-001 anti-TMPRSS6 antibody (antibody, mouse IgG2a, kappa, V domains shown)
VH: QVQLQQPGAELAKPGASVKMSCKASGYTFTSYWITWVKQRPGQDLEWIGNIYPGSGSTYYNEKFKSKATLTVDTSSRTAYMQLSSLTSADSAVYYCAPYDSDYAMDYWGQGTSVTVSS
VL: DIKMTQSPSSMYASLGERVTITCKASQDINNYLSWFQQKPGKSPKTLIYRANRLVDGVPSRVSGSGSGQDYSLTISSLEYEDVGIYFCLQYDEFPLTFGAGTKLELKR
B5: humanized anti-TMPRSS6 antibody variant hzMWTx-002Var (antibody, human IgG1, kappa, N297A, V domains shown)
VH: EVQLVQSGAEVKKPGASVKVSCKASGFNIKDYYIHWVRQATGQGLEWMGRIDPEDAESEYAPKFQGRVTITADTSTDTAYMELSSLRSEDTAVYYCTRGDSMMVTYFDYWGQGTLVTVSS
VL: DIQMTQSPSSLSASVGDRVTITCKASQDVSTAVAWYQQKPGKAPKLLIYWAFTRHTGVPSRFSGSGSGTDYALTISSLQPEDFATYYCQQHYRSPWTFGGGTKVEIKR

This note sets out measurements from US20230203196A1 (MABWELL THERAPEUTICS, published 2023).

The target of the assay is T1, TMPRSS6 expressed in transfected HepG2 …. Briefly: cell-based or functional assay.
With B1, the “HAMP promoter activity (HAMP-luciferase reporter assay in HepG2 cells expressing TMPRSS6), EC50” value turned out to be 2 µg/mL. Under B2 stands 0.3 µg/mL. Under B3 stands 0.8 µg/mL; under B4, 3 µg/mL; under B5, 0.3 µg/mL.
